Like-named read-outs stand apart in the source and are kept apart here. Each block holds one binder with its values, some of them ahead of it.
Key:
recombinant human IL-5 [1] = target: T1, recombinant human IL-5 (human, UniProt P05113 20-134); assay: cell-based or functional assay
cynomolgus monkey IL-5 = cynomolgus monkey IL-5 (cynomolgus monkey); assay: cell-based or functional assay
recombinant human IL-5 [2] = target: T1, recombinant human IL-5; assay: SPR
recombinant human IL-5 [3] = target: T1, recombinant human IL-5; assay: SPR; remark: listed apart in the source
recombinant human IL-5 [4] = target: T2, recombinant human IL-5 (human, UniProt P05113 20-134)
recombinant human IL-5 [5] = target: T2, recombinant human IL-5; remark: listed apart in the source
recombinant human IL-5 [6] = target: T2, recombinant human IL-5; remark: listed apart in the source
recombinant human IL-5 [7] = target: T2, recombinant human IL-5; assay: SPR Biacore, purified Ab on Protein A chip, IL-5 analyte, run 2.2
recombinant human IL-5 [8] = target: T2, recombinant human IL-5; remark: listed apart in the source
recombinant human IL-5 [9] = target: T2, recombinant human IL-5; remark: listed apart in the source
recombinant human IL-5 [10] = target: T2, recombinant human IL-5; remark: listed apart in the source
recombinant human IL-5 [11] = target: T2, recombinant human IL-5; remark: listed apart in the source
recombinant human IL-5 [12] = target: T2, recombinant human IL-5; assay: SPR Biacore, purified Ab on Protein A chip, IL-5 analyte, run 3.1
recombinant human IL-5 [13] = target: T2, recombinant human IL-5; remark: listed apart in the source
recombinant human IL-5 [14] = target: T2, recombinant human IL-5; remark: listed apart in the source
recombinant human IL-5 [15] = target: T2, recombinant human IL-5; remark: listed apart in the source
recombinant human IL-5 [16] = target: T3, recombinant human IL-5 (human, UniProt P05113 20-134); assay: Biacore SPR, purified Ab captured on Protein A, IL-5 injected, run 1.2
recombinant human IL-5 [17] = target: T3, recombinant human IL-5; remark: listed apart in the source
recombinant human IL-5 [18] = target: T3, recombinant human IL-5; remark: listed apart in the source
recombinant human IL-5 [19] = target: T3, recombinant human IL-5; assay: Biacore SPR, purified Ab captured on Protein A, IL-5 injected, run 2.1
recombinant human IL-5 [20] = target: T3, recombinant human IL-5; remark: listed apart in the source
recombinant human IL-5 [21] = target: T3, recombinant human IL-5; remark: listed apart in the source
recombinant human IL-5 [22] = target: T3, recombinant human IL-5; remark: listed apart in the source
recombinant human IL-5 [23] = target: T3, recombinant human IL-5; remark: listed apart in the source
recombinant human IL-5 [24] = target: T3, recombinant human IL-5; remark: listed apart in the source
recombinant human IL-5 [25] = target: T3, recombinant human IL-5; remark: listed apart in the source
recombinant human IL-5 [26] = target: T4, recombinant human IL-5 (human, UniProt P05113 20-134); assay: SPR; remark: listed apart in the source
recombinant human IL-5 [27] = target: T4, recombinant human IL-5; assay: SPR; remark: listed apart in the source
recombinant human IL-5 [28] = target: T4, recombinant human IL-5; assay: SPR; remark: listed apart in the source
recombinant human IL-5 [29] = target: T4, recombinant human IL-5; assay: SPR; remark: listed apart in the source
recombinant human IL-5 [30] = target: T4, recombinant human IL-5; assay: SPR; remark: listed apart in the source
recombinant human IL-5 [31] = target: T4, recombinant human IL-5; assay: SPR; remark: listed apart in the source

IC50, inhibition of IL-5 driven proliferation of TF-1.6G4 cells (Mean, pM) (recombinant human IL-5 [1]): 13.8 pM
IC50, inhibition of IL-5 driven proliferation of TF-1.6G4 cells (Mean, pM) (cynomolgus monkey IL-5): 43.8 pM
Kd (recombinant human IL-5 [2]): 19.4 pM
koff (recombinant human IL-5 [2]): 1.58e-05 s⁻¹
kon (recombinant human IL-5 [2]): 816000 M⁻¹ s⁻¹
Kd (recombinant human IL-5 [3]): 21.7 pM
koff (recombinant human IL-5 [3]): 1.84e-05 s⁻¹
kon (recombinant human IL-5 [3]): 849000 M⁻¹ s⁻¹
B1: 3A5.046 (antibody, human IgG4 S228P, lambda)
heavy: QVQLQESGPGLVKPSQTLSLTCTVSGGSISNGGYYWSWIRQHPGKGLEWIGYIYYSGSTYYNPSLKSRVTISVDTSKNQFSLKLSSVTAADTAVYYCASLGNWFDYWGQGTLVTVSSASTKGPSVFPLAPCSRSTSESTAALGCLVKDYFPEPVTVSWNSGALTSGVHTFPAVLQSSGLYSLSSVVTVPSSSLGTKTYTCNVDHKPSNTKVDKRVESKYGPPCPPCPAPEFLGGPSVFLFPPKPKDTLYITREPEVTCVVVDVSQEDPEVQFNWYVDGVEVHNAKTKPREEQFNSTYRVVSVLTVLHQDWLNGKEYKCKVSNKGLPSSIEKTISKAKGQPREPQVYTLPPSQEEMTKNQVSLTCLVKGFYPSDIAVEWESNGQPENNYKTTPPVLDSDGSFFLYSRLTVDKSRWQEGNVFSCSVMHEALHNHYTQKSLSLSLG
light: SYVLTQPPSVSVAPGQTARITCGGNNIGSKNVYWYQQKPGQAPVLVVHDDSDRPSGIPERFSGSNSGNTATLTISRVEVGDEADYSCQVWDSSSDHVVFGGGTKLTVLGQPKAAPSVTLFPPSSEELQANKATLVCLISDFYPGAVTVAWKADSSPVKAGVETTTPSKQSNNKYAASSYLSLTPEQWKSHRSYSCQVTHEGSTVEKTVAPTECS

Kd (recombinant human IL-5 [4]): 171 pM
koff (recombinant human IL-5 [4]): 0.000132 s⁻¹
kon (recombinant human IL-5 [4]): 772000 M⁻¹ s⁻¹
Kd (recombinant human IL-5 [5]): 138 pM
koff (recombinant human IL-5 [5]): 0.000109 s⁻¹
kon (recombinant human IL-5 [5]): 789000 M⁻¹ s⁻¹
Kd (recombinant human IL-5 [6]): 149 pM
koff (recombinant human IL-5 [6]): 0.000114 s⁻¹
kon (recombinant human IL-5 [6]): 769000 M⁻¹ s⁻¹
Kd (recombinant human IL-5 [7]): 133 pM
koff (recombinant human IL-5 [7]): 0.000106 s⁻¹
kon (recombinant human IL-5 [7]): 793000 M⁻¹ s⁻¹
Kd (recombinant human IL-5 [8]): 151 pM
koff (recombinant human IL-5 [8]): 0.000117 s⁻¹
kon (recombinant human IL-5 [8]): 775000 M⁻¹ s⁻¹
Kd (recombinant human IL-5 [9]): 150 pM
koff (recombinant human IL-5 [9]): 0.000117 s⁻¹
kon (recombinant human IL-5 [9]): 779000 M⁻¹ s⁻¹
Kd (recombinant human IL-5 [10]): 177 pM
koff (recombinant human IL-5 [10]): 0.000137 s⁻¹
kon (recombinant human IL-5 [10]): 772000 M⁻¹ s⁻¹
Kd (recombinant human IL-5 [11]): 134 pM
koff (recombinant human IL-5 [11]): 0.000103 s⁻¹
kon (recombinant human IL-5 [11]): 773000 M⁻¹ s⁻¹
Kd (recombinant human IL-5 [12]): 174 pM
koff (recombinant human IL-5 [12]): 0.00014 s⁻¹
kon (recombinant human IL-5 [12]): 807000 M⁻¹ s⁻¹
Kd (recombinant human IL-5 [13]): 135 pM
koff (recombinant human IL-5 [13]): 0.000105 s⁻¹
kon (recombinant human IL-5 [13]): 777000 M⁻¹ s⁻¹
Kd (recombinant human IL-5 [14]): 148 pM
koff (recombinant human IL-5 [14]): 0.000115 s⁻¹
kon (recombinant human IL-5 [14]): 776000 M⁻¹ s⁻¹
Kd (recombinant human IL-5 [15]): 153 pM
koff (recombinant human IL-5 [15]): 0.00012 s⁻¹
kon (recombinant human IL-5 [15]): 784000 M⁻¹ s⁻¹
B2: 3A5.040 (antibody, human IgG4 S228P, lambda)
heavy: not shown
light: B1 light

Kd (recombinant human IL-5 [16]): 151 pM
koff (recombinant human IL-5 [16]): 0.000111 s⁻¹
kon (recombinant human IL-5 [16]): 735000 M⁻¹ s⁻¹
Kd (recombinant human IL-5 [17]): 150 pM
koff (recombinant human IL-5 [17]): 0.00011 s⁻¹
kon (recombinant human IL-5 [17]): 732000 M⁻¹ s⁻¹
Kd (recombinant human IL-5 [18]): 139 pM
koff (recombinant human IL-5 [18]): 0.000101 s⁻¹
kon (recombinant human IL-5 [18]): 728000 M⁻¹ s⁻¹
Kd (recombinant human IL-5 [19]): 142 pM
koff (recombinant human IL-5 [19]): 0.000105 s⁻¹
kon (recombinant human IL-5 [19]): 737000 M⁻¹ s⁻¹
Kd (recombinant human IL-5 [20]): 115 pM
koff (recombinant human IL-5 [20]): 8.22e-05 s⁻¹
kon (recombinant human IL-5 [20]): 714000 M⁻¹ s⁻¹
Kd (recombinant human IL-5 [21]): 129 pM
koff (recombinant human IL-5 [21]): 9.36e-05 s⁻¹
kon (recombinant human IL-5 [21]): 727000 M⁻¹ s⁻¹
Kd (recombinant human IL-5 [22]): 143 pM
koff (recombinant human IL-5 [22]): 0.000104 s⁻¹
kon (recombinant human IL-5 [22]): 728000 M⁻¹ s⁻¹
Kd (recombinant human IL-5 [23]): 163 pM
koff (recombinant human IL-5 [23]): 0.000116 s⁻¹
kon (recombinant human IL-5 [23]): 713000 M⁻¹ s⁻¹
Kd (recombinant human IL-5 [24]): 180 pM
koff (recombinant human IL-5 [24]): 0.000133 s⁻¹
kon (recombinant human IL-5 [24]): 740000 M⁻¹ s⁻¹
Kd (recombinant human IL-5 [25]): 163 pM
koff (recombinant human IL-5 [25]): 0.000116 s⁻¹
kon (recombinant human IL-5 [25]): 713000 M⁻¹ s⁻¹
B3: 3A5.040 (antibody, human IgG4 S228P, lambda)
heavy: not shown
light: B1 light

Kd (recombinant human IL-5 [26]): 143 pM
koff (recombinant human IL-5 [26]): 9.95e-05 s⁻¹
kon (recombinant human IL-5 [26]): 696000 M⁻¹ s⁻¹
Kd (recombinant human IL-5 [27]): 139 pM
koff (recombinant human IL-5 [27]): 9.91e-05 s⁻¹
kon (recombinant human IL-5 [27]): 715000 M⁻¹ s⁻¹
Kd (recombinant human IL-5 [28]): 123 pM
koff (recombinant human IL-5 [28]): 8.96e-05 s⁻¹
kon (recombinant human IL-5 [28]): 727000 M⁻¹ s⁻¹
Kd (recombinant human IL-5 [29]): 128 pM
koff (recombinant human IL-5 [29]): 9.21e-05 s⁻¹
kon (recombinant human IL-5 [29]): 718000 M⁻¹ s⁻¹
Kd (recombinant human IL-5 [30]): 160 pM
koff (recombinant human IL-5 [30]): 0.000115 s⁻¹
kon (recombinant human IL-5 [30]): 720000 M⁻¹ s⁻¹
Kd (recombinant human IL-5 [31]): 148 pM
koff (recombinant human IL-5 [31]): 0.000106 s⁻¹
kon (recombinant human IL-5 [31]): 717000 M⁻¹ s⁻¹
B4: 3A5.040 (antibody, human IgG4 S228P, lambda)
heavy: not shown
light: B1 light
